How the values were obtained:
Test in all cases: cell-based or functional assay
[1] = target: TSHR with Asp276 mutated to Ala, expressed in CHO cells (human) (UniProt P16473)
[2] = target: TSHR with Asp203 mutated to Ala expressed in CHO cells (human) (UniProt P16473)
wild type TSHR (human) = wild type TSHR (human) (UniProt P16473)
[3] = target: TSHR with Lys183 mutated to Ala expressed in CHO cells (human) (UniProt P16473)
[4] = target: TSHR with Asp151 mutated to Ala, expressed in CHO cells (human) (UniProt P16473)
[5] = target: TSHR with Arg109 mutated to Ala, expressed in CHO cells (human) (UniProt P16473)
[6] = target: TSHR with Lys58 mutated to Ala expressed in CHO cells (human) (UniProt P16473)
[7] = target: TSHR with Tyr185 mutated to Ala (human) (UniProt P16473)
[8] = target: TSHR with Arg80 mutated to Ala expressed in CHO cells (human) (UniProt P16473)

TSH (ligand)
Experiment 2; Mutated/wild type (%) of cyclic AMP produced; TSH (2) 3 ng/mL, run at the end of assay [1]: 66% | Experiment 2; cyclic AMP produced; TSH 3 ng/mL [1]: 74.8 pmol/mL | Experiment 2; cyclic AMP produced; TSH (2) 3 ng/mL, run at the end of assay [1]: 61.2 pmol/mL | Mutated/Wild type (%), TSH 0.01 ng/mL [1]: 583% | Mutated/Wild type (%), TSH 0.03 ng/mL [1]: 369% | Mutated/Wild type (%), TSH 0.1 ng/mL [1]: 134% | Mutated/Wild type (%), TSH 0.3 ng/mL [1]: 103% | Mutated/Wild type (%), TSH 1 ng/mL [1]: 88% | Mutated/Wild type (%), TSH 3 ng/mL [1]: 80% | Cyclic AMP produced (pmol/mL), 0.01 ng/mL TSH [2]: 5.3 pmol/mL | Cyclic AMP produced (pmol/mL), 0.03 ng/mL TSH [2]: 7.13 pmol/mL | Cyclic AMP produced (pmol/mL), 0.1 ng/mL TSH [2]: 13 pmol/mL | Cyclic AMP produced (pmol/mL), 0.3 ng/mL TSH [2]: 33.8 pmol/mL | Cyclic AMP produced (pmol/mL), 1 ng/mL TSH [2]: 58.6 pmol/mL | Cyclic AMP produced (pmol/mL), 3 ng/mL TSH [2]: 69.3 pmol/mL | Mutated/Wild type (%) of cyclic AMP produced, 0.01 ng/mL TSH [2]: 231% | Mutated/Wild type (%) of cyclic AMP produced, 0.03 ng/mL TSH [2]: 200% | Mutated/Wild type (%) of cyclic AMP produced, 0.1 ng/mL TSH [2]: 154% | Mutated/Wild type (%) of cyclic AMP produced, 0.3 ng/mL TSH [2]: 128% | Mutated/Wild type (%) of cyclic AMP produced, 1 ng/mL TSH [2]: 89% | Mutated/Wild type (%) of cyclic AMP produced, 3 ng/mL TSH [2]: 90% | % inhibition of TSH stimulation, TSH (2) run at the end of assay, wild type TSHR (wild type TSHR (human)): 0% | Cyclic AMP produced (mean of duplicate), TSH 3 ng/mL (wild type TSHR (human)): 88 pmol/mL | Cyclic AMP produced (pmol/mL), TSH 3 ng/mL, wild type TSHR (wild type TSHR (human)): 101 pmol/mL | Cyclic AMP produced (pmol/mL), TSH (2) 3 ng/mL run at the end of assay, wild type TSHR (wild type TSHR (human)): 131 pmol/mL | Cyclic AMP produced, TSH 0.01 ng/mL, Experiment 1 (wild type TSHR (human)): 1.22 pmol/mL | Cyclic AMP produced, TSH 0.01 ng/mL, Experiment 2 (wild type TSHR (human)): 2.02 pmol/mL | Cyclic AMP produced, TSH 0.03 ng/mL, Experiment 1 (wild type TSHR (human)): 1.85 pmol/mL | Cyclic AMP produced, TSH 0.03 ng/mL, Experiment 2 (wild type TSHR (human)): 1.96 pmol/mL | Cyclic AMP produced, TSH 0.1 ng/mL, Experiment 1 (wild type TSHR (human)): 4.89 pmol/mL | Cyclic AMP produced, TSH 0.1 ng/mL, Experiment 2 (wild type TSHR (human)): 4.49 pmol/mL | Cyclic AMP produced, TSH 0.3 ng/mL, Experiment 1 (wild type TSHR (human)): 17.4 pmol/mL | Cyclic AMP produced, TSH 0.3 ng/mL, Experiment 2 (wild type TSHR (human)): 13.5 pmol/mL | Cyclic AMP produced, TSH 1 ng/mL, Experiment 1 (wild type TSHR (human)): 52.9 pmol/mL | Cyclic AMP produced, TSH 1 ng/mL, Experiment 2 (wild type TSHR (human)): 43.2 pmol/mL | Cyclic AMP produced; TSH 3 ng/mL; Experiment 1 (wild type TSHR (human)): 70.6 pmol/mL | Cyclic AMP produced; TSH 3 ng/mL; Experiment 2 (wild type TSHR (human)): 84.8 pmol/mL | Cyclic AMP produced (pmol/mL), 0.01 ng/mL TSH, Experiment 1 [3]: 4.95 pmol/mL | Cyclic AMP produced (pmol/mL), 0.01 ng/mL TSH, Experiment 2 [3]: 3.73 pmol/mL | Cyclic AMP produced (pmol/mL), 0.03 ng/mL TSH, Experiment 1 [3]: 6.94 pmol/mL | Cyclic AMP produced (pmol/mL), 0.03 ng/mL TSH, Experiment 2 [3]: 5.37 pmol/mL | Cyclic AMP produced (pmol/mL), 0.1 ng/mL TSH, Experiment 1 [3]: 13 pmol/mL | Cyclic AMP produced (pmol/mL), 0.1 ng/mL TSH, Experiment 2 [3]: 10.1 pmol/mL | Cyclic AMP produced (pmol/mL), 0.3 ng/mL TSH, Experiment 1 [3]: 35 pmol/mL | Cyclic AMP produced (pmol/mL), 0.3 ng/mL TSH, Experiment 2 [3]: 27.8 pmol/mL | Cyclic AMP produced (pmol/mL), 1 ng/mL TSH, Experiment 1 [3]: 57.2 pmol/mL | Cyclic AMP produced (pmol/mL), 1 ng/mL TSH, Experiment 2 [3]: 55.8 pmol/mL | Cyclic AMP produced (pmol/mL), 3 ng/mL TSH, Experiment 1 [3]: 69.2 pmol/mL | Cyclic AMP produced (pmol/mL), 3 ng/mL TSH, Experiment 2 [3]: 72.2 pmol/mL | Mutated/Wild type (%) of cyclic AMP produced, 0.01 ng/mL TSH, Experiment 1 [3]: 275% | Mutated/Wild type (%) of cyclic AMP produced, 0.01 ng/mL TSH, Experiment 2 [3]: 287% | Mutated/Wild type (%) of cyclic AMP produced, 0.03 ng/mL TSH, Experiment 1 [3]: 177% | Mutated/Wild type (%) of cyclic AMP produced, 0.03 ng/mL TSH, Experiment 2 [3]: 179% | Mutated/Wild type (%) of cyclic AMP produced, 0.1 ng/mL TSH, Experiment 1 [3]: 146% | Mutated/Wild type (%) of cyclic AMP produced, 0.1 ng/mL TSH, Experiment 2 [3]: 151% | Mutated/Wild type (%) of cyclic AMP produced, 0.3 ng/mL TSH, Experiment 1 [3]: 106% | Mutated/Wild type (%) of cyclic AMP produced, 0.3 ng/mL TSH, Experiment 2 [3]: 106% | Mutated/Wild type (%) of cyclic AMP produced, 1 ng/mL TSH, Experiment 1 [3]: 75% | Mutated/Wild type (%) of cyclic AMP produced, 1 ng/mL TSH, Experiment 2 [3]: 82% | Mutated/Wild type (%) of cyclic AMP produced, 3 ng/mL TSH, Experiment 1 [3]: 80% | Mutated/Wild type (%) of cyclic AMP produced, 3 ng/mL TSH, Experiment 2 [3]: 103% | % inhibition of TSH stimulation, mutated TSHR; TSH (2) (run at the end of assay) [4]: 9% | Mutated/Wild type (%) of cyclic AMP produced, TSH 0.01 ng/mL [4]: 209% | Mutated/Wild type (%) of cyclic AMP produced, TSH 0.03 ng/mL [4]: 149% | Mutated/Wild type (%) of cyclic AMP produced, TSH 0.1 ng/mL [4]: 99% | Mutated/Wild type (%) of cyclic AMP produced, TSH 0.3 ng/mL [4]: 80% | Mutated/Wild type (%) of cyclic AMP produced, TSH 1 ng/mL [4]: 66% | Mutated/wild type (%) of cyclic AMP produced; TSH 3 ng/mL [4]: 68% | Mutated/wild type (%) of cyclic AMP produced; test sample: TSH (3 ng/mL) [4]: 62% | Mutated/wild type (%) of cyclic AMP produced; test sample: TSH (2) (3 ng/mL, run at the end of assay) [4]: 44% | % inhibition of TSH stimulation; TSH (2) control; Experiment 1 [5]: 0% | % inhibition of TSH stimulation; TSH (2) control; Experiment 2 [5]: 6% | Cyclic AMP produced; TSH 3 ng/mL; Experiment 1 [5]: 32.9 pmol/mL | Cyclic AMP produced; TSH 3 ng/mL; Experiment 2 [5]: 53.4 pmol/mL | Cyclic AMP produced; TSH (2); Experiment 1 [5]: 33.3 pmol/mL | Cyclic AMP produced; TSH (2); Experiment 2 [5]: 50.4 pmol/mL | Mutated/wild type (%) of cyclic AMP produced; TSH 3 ng/mL; Experiment 1 [5]: 49% | Mutated/wild type (%) of cyclic AMP produced; TSH 3 ng/mL; Experiment 2 [5]: 88% | Mutated/wild type (%) of cyclic AMP produced; TSH (2); Experiment 1 [5]: 49% | Mutated/wild type (%) of cyclic AMP produced; TSH (2); Experiment 2 [5]: 74% | % inhibition of TSH stimulation; TSH (2); Experiment 1 [6]: 0% | % inhibition of TSH stimulation; TSH (2); Experiment 2 [6]: 1% | Cyclic AMP produced; TSH 3 ng/mL; Experiment 1 [6]: 78.5 pmol/mL | Cyclic AMP produced; TSH 3 ng/mL; Experiment 2 [6]: 96.8 pmol/mL | Cyclic AMP produced; TSH (2); Experiment 1 [6]: 85.2 pmol/mL | Cyclic AMP produced; TSH (2); Experiment 2 [6]: 95.8 pmol/mL | Mutated/wild type (%) of cyclic AMP produced; TSH 3 ng/mL; Experiment 1 [6]: 114% | Mutated/wild type (%) of cyclic AMP produced; TSH 3 ng/mL; Experiment 2 [6]: 99% | Mutated/wild type (%) of cyclic AMP produced; TSH (2); Experiment 1 [6]: 115% | Mutated/wild type (%) of cyclic AMP produced; TSH (2); Experiment 2 [6]: 94% | % inhibition of TSH stimulation, TSH (2) run at the end of assay, mutated TSHR [7]: 22% | Cyclic AMP produced (pmol/mL), TSH 3 ng/mL, mutated TSHR [7]: 52.5 pmol/mL | Cyclic AMP produced (pmol/mL), TSH (2) 3 ng/mL run at the end of assay, mutated TSHR [7]: 41 pmol/mL | Mutated/wild type (%) of cyclic AMP produced; TSH 3 ng/mL [7]: 52% | Mutated/wild type (%) of cyclic AMP produced; TSH (2) 3 ng/mL, run at the end of assay [7]: 31.2% | % inhibition of TSH stimulation; TSH (2) [8]: 16% | Cyclic AMP produced; TSH 3 ng/mL [8]: 105 pmol/mL | Cyclic AMP produced; TSH (2) [8]: 88.2 pmol/mL | Mutated/wild type (%) of cyclic AMP produced; TSH 3 ng/mL [8]: 124% | Mutated/wild type (%) of cyclic AMP produced; TSH (2) [8]: 94%

Reference: US20110300138A1 (published 2011)
